We go through two sequences from doi:10.1101/2025.06.23.656378.

This series has as its system poly-L-lysine (PLL, 30-70 kDa, Sigma P2636). In words: EMSA. The note with it: 10 mM Tris pH 7.5, 100 mM KCl, 5% glycerol, 30 min at room temperature. On the technique in general: Mobility shift assays separate free from complexed probe on a gel.

As for “TTAGAATTAGAATTAGAATTAGAA [dTERRA_M2 [TTAGAA]4]”, the dissociation constant (Kd) turned out to be 34 nM. “UUAGAAUUAGAAUUAGAAUUAGAA [rTERRA_M2 [UUAGAA]4]” displayed an equilibrium dissociation constant (Kd) of 7.4 nM.

One may read the Kd as the constant that tells how readily two partners part at equilibrium. High values mean weaker binding, low ones tighter binding.
